Measurements as given in patent US9260500B2, “Peptide and use thereof” (Takeda Pharmaceutical Company Limited, priority 2009, dated 2016).
Starred links: 1 amine or outer side, 2 acyl side, 3 side chain; linkers in the order of their positions; H or OH if unused. Non-standard residues stand in square brackets, D forms with d. Primed or numbered codes have the meaning given here. *: point of attachment. Asn(Me)″ = Nω-methylasparagine, CNC(=O)C[C@H](N[*:1])C(=O)[*:2]; Tyr(3-F) = N[C@@H](Cc1ccc(O)c(F)c1)C(=O)O; Tyr(2-F) = N[C@@H](Cc1ccc(O)cc1F)C(=O)O; Cyclohexanecarbonyl = O=C(C1CCCCC1)*; Ala(cPr) = N[C@@H](CC1CC1)C(=O)O; tBuAla = CC(C)(C)C[C@H](N)C(=O)O; 3Pal = N[C@@H](Cc1cccnc1)C(=O)O; Cha = N[C@@H](CC1CCCCC1)C(=O)O; Gly(cPr) = N[C@H](C(=O)O)C1CC1; Isobutyryl = CC(C)C(=O)*; Nle = CCCC[C@H](N)C(=O)O; Abu = CC[C@H](N)C(=O)O; Aib = CC(C)(N)C(=O)O

Legend:
human Y2 receptor [1] = biological target: T1, human Y2 receptor (Homo sapiens, UniProt P49146); assay: Receptor Binding Assay (RBA) for Human Y2, [125I]-PYY displacement on hY2R/CHO membrane fraction; conditions: IC50 of test compound/IC50 of PYY(3-36) (PYY(3-36) taken as 1)
T1 construct: expressed in transfected cells; membrane fraction
T1 sequence (P49146 1-381): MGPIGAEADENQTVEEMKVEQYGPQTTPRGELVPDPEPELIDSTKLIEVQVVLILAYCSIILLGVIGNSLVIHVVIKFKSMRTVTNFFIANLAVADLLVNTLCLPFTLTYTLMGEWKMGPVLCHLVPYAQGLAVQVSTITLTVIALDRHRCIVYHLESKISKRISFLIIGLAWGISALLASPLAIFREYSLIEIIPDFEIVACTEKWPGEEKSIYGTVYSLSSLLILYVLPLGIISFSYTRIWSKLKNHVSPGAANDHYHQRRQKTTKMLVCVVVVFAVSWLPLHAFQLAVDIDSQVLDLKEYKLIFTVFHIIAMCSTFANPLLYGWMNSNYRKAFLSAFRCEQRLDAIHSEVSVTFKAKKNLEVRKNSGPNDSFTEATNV
Summary of the method: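 Read-out is [125I]-PYY displacement from membranes of CHO/dhfr− cells stably transfected with human Y2R. Membranes were obtained by disrupting cells in a buffer of 10 mM NaHCO3, 5 mM EDTA and protease inhibitors.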

human Y2 receptor [2] = biological target: T1, human Y2 receptor; assay: Human Y2 Receptor G Protein Binding Assay (GBA), [35S]GTPγS; assay type: biochemical; conditions: EC50 of test compound/EC50 of PYY(3-36) (PYY3-36 taken as 1), hY2R/CHO membrane fraction
Summary of the method: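 Agonism measured as [35S]GTPγS binding, read by GF/C filtration and scintillation counting after 120 min at room temperature, using human Y2 membranes at 1 μg protein/mL in pH 7.4 Tris/MgCl2/NaCl/GDP buffer. Compound serially diluted 100 μM–1 nM; EC50 normalized to PYY(3-36) (ratio = compound/PYY).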

| Substance | RBA IC50 Ratio (human Y2 receptor [1]) | GBA EC50 Ratio (human Y2 receptor [2]) |
| --- | --- | --- |
| Isobutanoyl-[Abu26,27, Cha28,36, Aib31]-PYY(25-36) (Isobutyryl-R[Abu][Abu][Cha]NL[Aib]TRQR[Cha]-NH2; SMILES CC[C@H](NC(=O)[C@H](CCCNC(=N)N)NC(=O)C(C)C)C(=O)N[C@@H](CC)C(=O)N[C@@H](CC1CCCCC1)C(=O)N[C@@H](CC(N)=O)C(=O)N[C@@H](CC(C)C)C(=O)NC(C)(C)C(=O)N[C@H](C(=O)N[C@@H](CCCNC(=N)N)C(=O)N[C@@H](CCC(N)=O)C(=O)N[C@@H](CCCNC(=N)N)C(=O)N[C@@H](CC1CCCCC1)C(N)=O)[C@@H](C)O) [compound No. 94] | 31 | 37 |
| Isobutanoyl-[Abu26, Cha27,28,36, Abu30, Aib31]-PYY(25-36) (Isobutyryl-R[Abu][Cha][Cha]N[Abu][Aib]TRQR[Cha]-NH2; SMILES CC[C@H](NC(=O)[C@H](CCCNC(=N)N)NC(=O)C(C)C)C(=O)N[C@@H](CC1CCCCC1)C(=O)N[C@@H](CC1CCCCC1)C(=O)N[C@@H](CC(N)=O)C(=O)N[C@@H](CC)C(=O)NC(C)(C)C(=O)N[C@H](C(=O)N[C@@H](CCCNC(=N)N)C(=O)N[C@@H](CCC(N)=O)C(=O)N[C@@H](CCCNC(=N)N)C(=O)N[C@@H](CC1CCCCC1)C(N)=O)[C@@H](C)O) [compound No. 91] | 20 | 21 |
| Isobutanoyl-[Abu26, Cha27,28,36, Ala(cPr)30, Aib31]-PYY(25-36) (Isobutyryl-R[Abu][Cha][Cha]N[Ala(cPr)][Aib]TRQR[Cha]-NH2; SMILES CC[C@H](NC(=O)[C@H](CCCNC(=N)N)NC(=O)C(C)C)C(=O)N[C@@H](CC1CCCCC1)C(=O)N[C@@H](CC1CCCCC1)C(=O)N[C@@H](CC(N)=O)C(=O)N[C@@H](CC1CC1)C(=O)NC(C)(C)C(=O)N[C@H](C(=O)N[C@@H](CCCNC(=N)N)C(=O)N[C@@H](CCC(N)=O)C(=O)N[C@@H](CCCNC(=N)N)C(=O)N[C@@H](CC1CCCCC1)C(N)=O)[C@@H](C)O) [compound No. 80] | 17 | 12 |
| Isobutanoyl-[Abu26, Cha27,28,36, Gln30, Aib31]-PYY(25-36) (Isobutyryl-R[Abu][Cha][Cha]NQ[Aib]TRQR[Cha]-NH2; SMILES CC[C@H](NC(=O)[C@H](CCCNC(=N)N)NC(=O)C(C)C)C(=O)N[C@@H](CC1CCCCC1)C(=O)N[C@@H](CC1CCCCC1)C(=O)N[C@@H](CC(N)=O)C(=O)N[C@@H](CCC(N)=O)C(=O)NC(C)(C)C(=O)N[C@H](C(=O)N[C@@H](CCCNC(=N)N)C(=O)N[C@@H](CCC(N)=O)C(=O)N[C@@H](CCCNC(=N)N)C(=O)N[C@@H](CC1CCCCC1)C(N)=O)[C@@H](C)O) [compound No. 90] | 19 | 22 |
| Isobutanoyl-[Abu26, Cha27,28,36, Gly(cPr)31]-PYY(25-36) (Isobutyryl-R[Abu][Cha][Cha]NL[Gly(cPr)]TRQR[Cha]-NH2; SMILES CC[C@H](NC(=O)[C@H](CCCNC(=N)N)NC(=O)C(C)C)C(=O)N[C@@H](CC1CCCCC1)C(=O)N[C@@H](CC1CCCCC1)C(=O)N[C@@H](CC(N)=O)C(=O)N[C@@H](CC(C)C)C(=O)N[C@H](C(=O)N[C@H](C(=O)N[C@@H](CCCNC(=N)N)C(=O)N[C@@H](CCC(N)=O)C(=O)N[C@@H](CCCNC(=N)N)C(=O)N[C@@H](CC1CCCCC1)C(N)=O)[C@@H](C)O)C1CC1) [compound No. 88] | 25 | 16 |
| Isobutanoyl-[Abu26, Cha27,28,36, His30, Aib31]-PYY(25-36) (Isobutyryl-R[Abu][Cha][Cha]NH[Aib]TRQR[Cha]-NH2; SMILES CC[C@H](NC(=O)[C@H](CCCNC(=N)N)NC(=O)C(C)C)C(=O)N[C@@H](CC1CCCCC1)C(=O)N[C@@H](CC1CCCCC1)C(=O)N[C@@H](CC(N)=O)C(=O)N[C@@H](Cc1c[nH]cn1)C(=O)NC(C)(C)C(=O)N[C@H](C(=O)N[C@@H](CCCNC(=N)N)C(=O)N[C@@H](CCC(N)=O)C(=O)N[C@@H](CCCNC(=N)N)C(=O)N[C@@H](CC1CCCCC1)C(N)=O)[C@@H](C)O) [compound No. 92] | 22 | 20 |
| Isobutanoyl-[Abu26, Cha27,28,36, Leu(Me)30, Aib31]-PYY(25-36) (Isobutyryl-R[Abu][Cha][Cha]N[tBuAla][Aib]TRQR[Cha]-NH2; SMILES CC[C@H](NC(=O)[C@H](CCCNC(=N)N)NC(=O)C(C)C)C(=O)N[C@@H](CC1CCCCC1)C(=O)N[C@@H](CC1CCCCC1)C(=O)N[C@@H](CC(N)=O)C(=O)N[C@@H](CC(C)(C)C)C(=O)NC(C)(C)C(=O)N[C@H](C(=O)N[C@@H](CCCNC(=N)N)C(=O)N[C@@H](CCC(N)=O)C(=O)N[C@@H](CCCNC(=N)N)C(=O)N[C@@H](CC1CCCCC1)C(N)=O)[C@@H](C)O) [compound No. 81] | 51 | 26 |

Continued, values first:

| RBA IC50 Ratio (human Y2 receptor [1]) | GBA EC50 Ratio (human Y2 receptor [2]) | Substance |
| --- | --- | --- |
| 76 | 37 | Cyclohexanecarbonyl-[Cha27,36, Ile28,31, Asn(Me)29]-PYY(25-36) (Cyclohexanecarbonyl-RH[Cha]I[Asn(Me)″]LITRQR[Cha]-NH2; SMILES CC[C@H](C)[C@H](NC(=O)[C@H](CC1CCCCC1)NC(=O)[C@H](Cc1c[nH]cn1)NC(=O)[C@H](CCCNC(=N)N)NC(=O)C1CCCCC1)C(=O)N[C@@H](CC(=O)NC)C(=O)N[C@@H](CC(C)C)C(=O)N[C@H](C(=O)N[C@H](C(=O)N[C@@H](CCCNC(=N)N)C(=O)N[C@@H](CCC(N)=O)C(=O)N[C@@H](CCCNC(=N)N)C(=O)N[C@@H](CC1CCCCC1)C(N)=O)[C@@H](C)O)[C@@H](C)CC) [compound No. 75] |
| 50 | 33 | Cyclohexanecarbonyl-[Nle26, Cha27,28,36, Aib31]-PYY(25-36) (Cyclohexanecarbonyl-R[Nle][Cha][Cha]NL[Aib]TRQR[Cha]-NH2; SMILES CCCC[C@H](NC(=O)[C@H](CCCNC(=N)N)NC(=O)C1CCCCC1)C(=O)N[C@@H](CC1CCCCC1)C(=O)N[C@@H](CC1CCCCC1)C(=O)N[C@@H](CC(N)=O)C(=O)N[C@@H](CC(C)C)C(=O)NC(C)(C)C(=O)N[C@H](C(=O)N[C@@H](CCCNC(=N)N)C(=O)N[C@@H](CCC(N)=O)C(=O)N[C@@H](CCCNC(=N)N)C(=O)N[C@@H](CC1CCCCC1)C(N)=O)[C@@H](C)O) [compound No. 77] |
| 25 | 19 | Isobutanoyl-[Abu26, Cha27,28,36, Pya(3)31]-PYY(25-36) (Isobutyryl-R[Abu][Cha][Cha]NL[3Pal]TRQR[Cha]-NH2; SMILES CC[C@H](NC(=O)[C@H](CCCNC(=N)N)NC(=O)C(C)C)C(=O)N[C@@H](CC1CCCCC1)C(=O)N[C@@H](CC1CCCCC1)C(=O)N[C@@H](CC(N)=O)C(=O)N[C@@H](CC(C)C)C(=O)N[C@@H](Cc1cccnc1)C(=O)N[C@H](C(=O)N[C@@H](CCCNC(=N)N)C(=O)N[C@@H](CCC(N)=O)C(=O)N[C@@H](CCCNC(=N)N)C(=O)N[C@@H](CC1CCCCC1)C(N)=O)[C@@H](C)O) [compound No. 82] |
| 26 | 28 | Isobutanoyl-[Abu26, Cha27,28,36, Ser30, Aib31]-PYY(25-36) (Isobutyryl-R[Abu][Cha][Cha]NS[Aib]TRQR[Cha]-NH2; SMILES CC[C@H](NC(=O)[C@H](CCCNC(=N)N)NC(=O)C(C)C)C(=O)N[C@@H](CC1CCCCC1)C(=O)N[C@@H](CC1CCCCC1)C(=O)N[C@@H](CC(N)=O)C(=O)N[C@@H](CO)C(=O)NC(C)(C)C(=O)N[C@H](C(=O)N[C@@H](CCCNC(=N)N)C(=O)N[C@@H](CCC(N)=O)C(=O)N[C@@H](CCCNC(=N)N)C(=O)N[C@@H](CC1CCCCC1)C(N)=O)[C@@H](C)O) [compound No. 89] |
| 19 | 11 | Isobutanoyl-[Abu26, Cha27,28, Aib31, Tyr(2F)36]-PYY(25-36) (Isobutyryl-R[Abu][Cha][Cha]NL[Aib]TRQR[Tyr(2-F)]-NH2; SMILES CC[C@H](NC(=O)[C@H](CCCNC(=N)N)NC(=O)C(C)C)C(=O)N[C@@H](CC1CCCCC1)C(=O)N[C@@H](CC1CCCCC1)C(=O)N[C@@H](CC(N)=O)C(=O)N[C@@H](CC(C)C)C(=O)NC(C)(C)C(=O)N[C@H](C(=O)N[C@@H](CCCNC(=N)N)C(=O)N[C@@H](CCC(N)=O)C(=O)N[C@@H](CCCNC(=N)N)C(=O)N[C@@H](Cc1ccc(O)cc1F)C(N)=O)[C@@H](C)O) [compound No. 86] |
| 26 | 20 | Isobutanoyl-[Abu26, Cha27,28, Aib31, Tyr(3F)36]-PYY(25-36) (Isobutyryl-R[Abu][Cha][Cha]NL[Aib]TRQR[Tyr(3-F)]-NH2; SMILES CC[C@H](NC(=O)[C@H](CCCNC(=N)N)NC(=O)C(C)C)C(=O)N[C@@H](CC1CCCCC1)C(=O)N[C@@H](CC1CCCCC1)C(=O)N[C@@H](CC(N)=O)C(=O)N[C@@H](CC(C)C)C(=O)NC(C)(C)C(=O)N[C@H](C(=O)N[C@@H](CCCNC(=N)N)C(=O)N[C@@H](CCC(N)=O)C(=O)N[C@@H](CCCNC(=N)N)C(=O)N[C@@H](Cc1ccc(O)c(F)c1)C(N)=O)[C@@H](C)O) [compound No. 87] |
